Data published in US20180022822A1, “NOVEL ANTI-FIBROBLAST ACTIVATION PROTEIN (FAP) BINDING AGENTS AND USES THEREOF” (Mabimmune Diagnostics AG, priority 2016, published 2018).

T1: captured FAP (sFAP) (Homo sapiens, UniProt Q12884)
T1 sequence (Q12884 1-760): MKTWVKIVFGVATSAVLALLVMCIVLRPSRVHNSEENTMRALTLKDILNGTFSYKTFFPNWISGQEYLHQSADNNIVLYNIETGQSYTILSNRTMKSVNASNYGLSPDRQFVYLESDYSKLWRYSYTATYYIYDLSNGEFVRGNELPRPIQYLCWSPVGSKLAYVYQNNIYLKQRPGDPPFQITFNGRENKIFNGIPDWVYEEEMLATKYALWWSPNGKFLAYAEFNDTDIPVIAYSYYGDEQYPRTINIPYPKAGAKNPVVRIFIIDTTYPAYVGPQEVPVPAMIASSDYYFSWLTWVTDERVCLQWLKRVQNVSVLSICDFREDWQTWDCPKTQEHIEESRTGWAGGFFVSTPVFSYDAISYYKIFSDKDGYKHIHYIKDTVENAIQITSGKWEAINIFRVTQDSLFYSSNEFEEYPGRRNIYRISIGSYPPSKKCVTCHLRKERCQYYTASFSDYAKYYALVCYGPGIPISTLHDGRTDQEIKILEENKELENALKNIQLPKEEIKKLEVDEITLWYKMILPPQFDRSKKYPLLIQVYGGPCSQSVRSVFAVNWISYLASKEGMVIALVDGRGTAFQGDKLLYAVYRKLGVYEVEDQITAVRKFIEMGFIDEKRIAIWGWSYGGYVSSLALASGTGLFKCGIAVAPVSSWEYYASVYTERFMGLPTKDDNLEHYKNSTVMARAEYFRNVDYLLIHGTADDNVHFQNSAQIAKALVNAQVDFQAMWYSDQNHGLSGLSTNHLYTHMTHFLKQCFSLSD

T2: directly coated FAP (FAP) (Homo sapiens, UniProt Q12884)
T2 sequence (Q12884 1-760): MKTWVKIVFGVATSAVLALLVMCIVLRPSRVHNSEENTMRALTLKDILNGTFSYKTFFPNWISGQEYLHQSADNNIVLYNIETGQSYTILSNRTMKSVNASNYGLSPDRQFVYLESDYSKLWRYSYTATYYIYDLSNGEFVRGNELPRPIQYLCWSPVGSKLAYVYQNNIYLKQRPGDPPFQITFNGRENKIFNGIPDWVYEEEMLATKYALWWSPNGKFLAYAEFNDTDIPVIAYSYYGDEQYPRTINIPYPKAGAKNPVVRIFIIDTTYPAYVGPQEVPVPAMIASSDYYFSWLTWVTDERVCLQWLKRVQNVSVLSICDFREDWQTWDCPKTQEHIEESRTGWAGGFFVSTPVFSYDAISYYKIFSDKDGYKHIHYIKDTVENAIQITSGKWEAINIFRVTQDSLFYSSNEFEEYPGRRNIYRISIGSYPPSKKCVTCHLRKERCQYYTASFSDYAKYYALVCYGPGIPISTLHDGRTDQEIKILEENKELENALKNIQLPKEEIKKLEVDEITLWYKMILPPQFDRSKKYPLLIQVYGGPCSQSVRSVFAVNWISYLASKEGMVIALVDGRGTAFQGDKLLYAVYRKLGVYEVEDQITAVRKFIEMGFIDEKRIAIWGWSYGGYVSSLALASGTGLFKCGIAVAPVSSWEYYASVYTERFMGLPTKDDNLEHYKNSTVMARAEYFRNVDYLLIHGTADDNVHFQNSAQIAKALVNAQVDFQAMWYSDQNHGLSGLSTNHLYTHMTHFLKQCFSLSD

T3: transmembrane human FAP on FAP expressing HEK293 cells (Homo sapiens, UniProt Q12884)
T3 construct: HEK293 cells were transduced with retrovirus encoding full length human FAP cDNA; host or cells: HEK293 (retroviral transduction, G418 selected)
T3 sequence (Q12884 1-760): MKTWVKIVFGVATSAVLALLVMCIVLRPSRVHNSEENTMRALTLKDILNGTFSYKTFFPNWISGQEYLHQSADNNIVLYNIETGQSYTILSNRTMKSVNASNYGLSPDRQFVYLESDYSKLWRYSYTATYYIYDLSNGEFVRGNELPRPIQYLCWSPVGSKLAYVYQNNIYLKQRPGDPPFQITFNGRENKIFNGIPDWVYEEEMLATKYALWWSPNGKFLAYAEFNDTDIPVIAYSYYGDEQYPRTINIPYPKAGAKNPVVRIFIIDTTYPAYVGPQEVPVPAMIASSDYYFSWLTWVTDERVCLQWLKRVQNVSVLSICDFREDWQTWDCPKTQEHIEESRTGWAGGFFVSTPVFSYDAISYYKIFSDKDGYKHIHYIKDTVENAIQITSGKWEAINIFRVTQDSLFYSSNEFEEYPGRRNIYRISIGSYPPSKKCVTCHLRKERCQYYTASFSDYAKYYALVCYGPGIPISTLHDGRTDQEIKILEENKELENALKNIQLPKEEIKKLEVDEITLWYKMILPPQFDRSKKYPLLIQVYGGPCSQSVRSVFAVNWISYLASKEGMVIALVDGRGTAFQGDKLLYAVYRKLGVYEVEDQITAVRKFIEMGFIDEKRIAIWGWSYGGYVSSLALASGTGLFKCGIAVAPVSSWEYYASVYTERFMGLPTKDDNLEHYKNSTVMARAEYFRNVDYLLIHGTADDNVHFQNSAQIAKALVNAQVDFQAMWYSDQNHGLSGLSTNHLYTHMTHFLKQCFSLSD


Key:
[1] = tested on: directly coated FAP peptides mixture (cFAP); test: direct ELISA on coated mixture of FAP peptides; format: binding, human; settings: peptides 378-392, 622-636, 721-736
Method: (§1) ELISA assays were performed with varying antibody concentrations to validate the binding of the exemplary antibodies of the present invention to FAP and to be able to determine their half maximal effective concentration (EC50). For the exemplary recombinant human NI-206-18H2, NI-206-20A8, NI-206-6D3, ‘NI-206-14C5, NI-206-34C11, NI-206.82C2, NI-206.59B4, NI-206.22F7, NI-206.27E8, NI-206.12G4 and NI-206.17A6 antibodies, 96-well microplates (Costar, Corning, USA) were coated with FAP, with a mixture of the 3 peptides or with BSA (Sigma-Aldrich, Buchs, Switzerland) diluted to a concentration of 5 μg/ml in carbonate ELISA coating buffer (15 mM Na2CO3, 35 mM NaHCO3, pH 9.4) for the direct ELISA. For the capture ELISA, the microplates were coated with mouse anti-His monoclonal antibody (Clontech) diluted to a concentration of 3 μg/ml in PBS, the plates were then blocked, FAP or BSA were diluted to a concentration of 2 μg/ml in PBS and added to the plates to be captured. The binding efficiency of the antibodies was then tested.
(§2) The EC50 values were estimated by a non-linear regression using GraphPad Prism (San Diego, USA) software. […] The binding of NI-206.12G4 towards sFAP was not tested.

captured FAP (sFAP) = molecular target: T1, captured FAP (sFAP); test: capture ELISA, FAP captured via his-tag with coated anti-His antibody; format: binding
Method: as §1, §2

[2] = molecular target: T2, directly coated FAP (FAP); test: direct ELISA on directly coated FAP; format: binding
Method: as §1, §2

[3] = molecular target: T3, transmembrane human FAP on FAP expressing HEK293 cells; test: flow cytometry of Cy5 labelled antibodies on FAP-HEK293 cells in pH adjusted PBS; format: cell-based; settings: pH 7.4 to 6.2; 0.1-100 nM Cy5 labelled antibody
Method: To evaluate the binding of NI-206.82C2, NI-206.59B4, NI-206.27E8, NI-206.12G4, NI-206.18H2 and NI-206.6D3 to transmembrane human FAP, an FAP expressing HEK293 cell line was received from the National Institutes of Health, Bethesda, Md. The generation of this FAP expressing HEK293 cells is described in: J. Exp. Med. 2013 Vol. 210 No. 6 1125-1135. HEK293 cells were transduced with retrovirus encoding full length human FAP cDNA. Cloning was performed using Fast Cloning Pack and FastDigest restriction enzymes (both from Fermentas). Transient retroviral supernatants were generated by transfecting 293GP cells with the FAP plasmid using Lipofectamine 2000 (Invitrogen). Retroviral supernatants were collected at 48 h after transfection and centrifuged onto Retronectin-coated (10 μg/ml; Takara), non-tissue culture-treated 6-well plates at 2,000 G for 2 h at 32° C. These retroviral supernatants where then used to transduce HEK293 cells overnight. Transduced FAP-HEK293 cells were selected with 1 mg/ml G418 (CellGro).
500′000 FAP-HEK293 cells were incubated for 1 hr at 4° C. either with Cy5 labelled NI-206.82C2, NI-206.59B4, NI-206.27E8, NI-206.12G4, NI-206.18H2 or NI-206.6D3 or with Cy5 labelled 43A11 at four different antibody concentrations (0.1, 1, 10, and 100 nM) in seven different pH-adjusted PBS buffers (pH 7.4, 6.8, 6.6, 6.5, 6.4, 6.3 and 6.2). PBS buffers were adjusted to using MES monohydrate (Sigma Aldrich). Following incubation, cells were washed 3 times with 200 uL in matched pH-adjusted PBS, spun at 400G for 4 min, and resuspended in 200 μL of pH adjusted buffer.
To analyze antibody binding, fluorescent activated flow cytometry was performed using a BD Fortesa device for forward scatter, side scatter, and the mean fluorescent intensity (MFI) of the Cy5 channel was recorded using a […] laser excitation and 600/20 filter. Viable cells were gated by forward and side scatter, and singlets/doublet exclusion, and the MFI for Cy5 was quantified using FlowJo software Version 10.1.

BSA = molecular target: T4, BSA (Bos taurus, UniProt P02769); test: ELISA control binding to BSA; parameters: species or system bovine
T4 construct: purchased Sigma-Aldrich
Method: as §1

[4] = ELISA, varying antibody concentrations

T4 sequence (P02769 25-607): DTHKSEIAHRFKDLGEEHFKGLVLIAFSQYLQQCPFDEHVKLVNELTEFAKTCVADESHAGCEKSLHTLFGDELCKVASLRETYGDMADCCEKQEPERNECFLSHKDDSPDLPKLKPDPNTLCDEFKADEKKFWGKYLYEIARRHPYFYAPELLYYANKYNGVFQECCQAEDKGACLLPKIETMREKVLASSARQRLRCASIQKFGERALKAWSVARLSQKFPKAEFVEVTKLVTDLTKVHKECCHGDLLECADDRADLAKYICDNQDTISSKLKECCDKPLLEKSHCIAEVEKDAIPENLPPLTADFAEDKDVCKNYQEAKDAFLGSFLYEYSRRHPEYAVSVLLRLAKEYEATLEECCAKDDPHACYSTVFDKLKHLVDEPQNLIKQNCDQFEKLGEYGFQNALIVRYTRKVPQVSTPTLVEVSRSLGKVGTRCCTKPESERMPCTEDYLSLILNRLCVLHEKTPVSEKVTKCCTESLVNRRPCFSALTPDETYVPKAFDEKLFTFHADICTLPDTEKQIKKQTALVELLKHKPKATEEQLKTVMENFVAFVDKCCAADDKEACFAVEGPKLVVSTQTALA

| EC50 to the directly coated FAP peptides mixture (cFAP) [1] | paratope-specific avidity (ΔMFI) under acidic conditions vs. at pH 7.4 [3] | Molecule | also measured |
| --- | --- | --- | --- |
| did not show any binding |  | NI-206.17A6: human-derived recombinant anti-FAP antibody; VH SEQ ID NO: 24, VK SEQ ID NO: 26 (antibody, listed as Homo sapiens, V domains shown) VH: QVQLQESGPGLVRSTETLSLTCLVSGDSINSHYWSWLRQSPGRGLEWIGYIYYTGPTNYNPSLKSRVSISLGTSKDQFSLKLSSVTAADTARYYCARNKVFWRGSDFYYYMDVWGKGTTVTVSS VL: EIVLTQSPGTLSLSLGERATLSCRASQSLANNYLAWYQQKPGQAPRLLMYDASTRATGIPDRFSGSGSGTDFTLTISRLEPEDFAVYYCQQFVTSHHMYIFGQGTKVEIK |  |
|  |  | NI-206.22F7: human-derived recombinant anti-FAP antibody; VH SEQ ID NO: 12, VL SEQ ID NO: 14 (antibody, listed as Homo sapiens, V domains shown) VH: EVQLVETGGGVVQPGRSLRLSCAASGFSFSTHGMYWVRQPPGKGLEWVAVISYDGSDKKYADSVKGRFTISRDNSKNTVYLEMSSVRAEDTALYYCFCRRDAFDLWGQGTMVTVSS VL: SYVLTQPPSVSVSPGQTARITCSGDALPKKYAYWYQQKSGQAPVLVIYEDTKRPSGIPERFSGSSSGTMATLTISGAQVEDEADYYCYSTDSSGNYWVFGGGTEVTVL | EC50 to the captured FAP (sFAP) (captured FAP (sFAP); capture ELISA, non-linear regression, GraphPad Prism): did not show any binding; EC50 to the directly coated FAP (FAP) ([2]; direct ELISA, non-linear regression, GraphPad Prism): did not show any binding |
| did not show any binding | increased | NI-206.27E8: human-derived recombinant anti-FAP antibody; VH SEQ ID NO: 16, VL SEQ ID NO: 18 (antibody, listed as Homo sapiens, V domains shown) VH: EVQLVESGGGLVEPGGSLRLSCAASGFTFSDAWMNWVRQAPGKGLEWVGRIKTKSDGGTTDYAAPVRGRFSISRDDSKNTLFLEMNSLKTEDTAIYYCFITVIVVSSESPLDHWGQGTLVTVSS VL: SYELTQPPSVSVSPGQTARITCSGDELPKQYAYWYQQKPGQAPVLVIYKDRQRPSGIPERFSGSSSGTTVTLTISGVQAEDEADYYCQSAYSINTYVIFGGGTKLTVL |  |
| did not show any binding | decreases | NI-206.12G4: human-derived recombinant anti-FAP antibody; VH SEQ ID NO: 20, VL SEQ ID NO: 22 (antibody, listed as Homo sapiens, V domains shown) VH: EVQLVESGGGLVKPGGSLRLSCAASGFTFSDYYMSWIRQAPGKGLEWISYISSGSSYTNYADSVKGRFTISRDNAKKSVYLEVNGLTVEDTAVYYCARVRYGDREMATIGGFDFWGQGTLVTVSS VL: SYELTQPPSVSVSPGQTARITCSGDALPKQYAYWYQQSPGQAPVLVIYKDSERPSGIPERFSGSSSGTTVTLTISGVQAEDEADYYCQSADSGGTSRIFGGGTKLTVL |  |
| did not show any binding | increased | NI-206.59B4: human-derived recombinant anti-FAP antibody; VH SEQ ID NO: 8, VL SEQ ID NO: 10 (antibody, listed as Homo sapiens, V domains shown) VH: QVQLVQSGAEVKKPGASVKVSCKTSGYTFTDYYIHWVRQAPGQGLEWMGWINPNRGGTNYAQKFQGRVTMTRDTSIATAYMELSRLRSDDTAVYYCATASLKIAAVGTFDCWGQGTLVTVSS VL: SYELTQPPSVSVSPGQTARITCSGDALSKQYAFWFQQKPGQAPILVIYQDTKRPSGIPGRFSGSSSGTTVTLTISGAQADDEADYYCQSADSSGTYVFGTGTKVTVL | binding to the captured FAP (captured FAP (sFAP); [4]): specifically, strongly and similarly bind; binding to the directly coated FAP [2, 4]: specifically, strongly and similarly bind; binding to BSA (BSA): does not bind |
